Results taken from the nanobody polyreactivity screen of Harvey et al. (2022).

Test: yeast display, Sf9 membrane polyspecificity reagent, FACS + sequencing; frameworks hold sequencing errors
Method in brief: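 Nanobodies from a synthetic yeast display library (Saccharomyces cerevisiae BJ5465), induced 36–48 hours with galactose, were stained 1 hour at 4 °C with 10% biotinylated, detergent-solubilized Sf9 membrane reagent, enriched on streptavidin microbeads, then FACS-sorted. Anti-HA (expression) and streptavidin (reagent binding) fluorescence set low and high (top ~1%) gates. Polyreactivity labels come from the gate of origin. Genes were colony-PCR amplified, MiSeq 2 × 250 sequenced and filtered by CDR length.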

| Sequence | polyreactivity (PSR sort gate) |
| --- | --- |
| QVQLVESGGGLVQAGGSLRLSCAASGSTFATYAMGWYRQAPGKERELVAAITSGGSTYYADSVKGRFTISRDNAKNTFYFQMNSLKPEDTAVYYCAARSAGWRRATYYKREEYWGQGTQVTVSS | high polyreactivity |
| QVQLVESGGGLVQAGGSLRLSCAASGYIFLGNAMGWYRQAPGKERELVAAISRSGGSTYYADSVKGRFTISRDNAKNTVYLQMNSLKPEATAVYYCAAGTRIYNSWIRFDYWGQGTQVTVSS | high polyreactivity |
| QVQLVESGGGLVQAGGSLRLSCAASGRIFKVNTMGWYRQAPGKERELVASIRGGGSTNYADSVKGRFTISRDNAKNTVYLQMNSLKPEDTAVYYCAAGTSKPTPIYGYWGQGTQVTVSS | low polyreactivity |
| QVQLVESGGGLVQAGGSLRLSCAASGLTFYQYAMGWSRQAPGKERELVAAISKSAGSTYYADSVKGRFTISRDNAKNTVYLQMNSLKPEDTAVYYCAARVLRLRYDYWGQGTQVTVSS | high polyreactivity |
| QVQLVESGGGLVQAGGSLRLSCAASGRTFYKNAMGWYRQEPGTERELVAAISSRGGRTTYADSVKGRFTISRDNAKNTVYLQMISLKPEDTAVYYCAADWAQVYHGTPKYYYWGQGTQVTVSS | high polyreactivity |
| QVQLVESGGGLVQAGGSLRLSCAASGFTFYNYAMGWYRQAPGKERELVAAISWSGGSTHYADSVKGRFTISRDNAKNTVYLQMNSLKPEDTAVYYCAKFGVLGYYTYYYWGQGTQVTVSS | low polyreactivity |
| QVQLVESGGGLVQAGGSLRLSCAASGSIFAYYAMGWYRQAPGKERELVAAITSGDSTYYADSVKGRFTISRDNAKNTVYLQMNSLKPEDTAVYYCAADHIWFYFYLYDYWGQGTQVTVSS | high polyreactivity |
| QVQLVESGGGLVQAGGSLRLSCAASGFTFDFYAMGWYRQAPGKERELVAAISKNDGTTYYADSVKGRFTISRDNAKNTVYLQMNSLKPEDTAVYYCAADVELWVFRGQQYDYWGQGTQVTVSS | low polyreactivity |
| QVQLVESGGGLVQAGGSLRLSCVASGSISQTYDMGWYRQAPGKERELVAAISSSGASTYYADSVKGRFTISRDNAKNTVYLQMNSLKPEDTAVYYCNADKFRRYGYWGQGTQVTVSS | high polyreactivity |
| QVQLVESGGGLVQAGGSLRLSCAASGSIFYRYAMGWYRQAPGKERELVAAISWGGGRTYYADSVKGRFTISRDNAKNTVYLLMKSLKPEDTAVYYCNAVQSYYTVHRLDYWGQGTQVTVSS | high polyreactivity |
| QVQLVESGGGIVQAGGSLRLRCAATASIYVHYAMGWYIQAPGKETDLVAAIRWRGGSTNYADSVKGRFTISRDNAKNTVDLQMNSLKQEDTAVSYCNARHPASGDLYRMDYWGPGTQVTVSS | low polyreactivity |
| QVQLVESGGGLVQAGGSLRLSCAASGNIFFIYAMGWYRQAPGKERELVAAITSTGSTYYADSVKGRFTISRDNAKNTVYLQMNSLKPEDTAVYYCAALLQRRFAYDYWGQGTQVTVSS | low polyreactivity |
| QVQLVESGGGLVQTGGSLRLSCAASGSTFYYYAMGWYRQAPGKERELVAGISWGGGSTYYADSVKGRFTISRDNAKNTVYLQMNSLKPEDTAVYYCNALNPNSYDYWGQGTLVTVSS | low polyreactivity |
| QVQLVASGGGLVQAGGSLRLSCAASGSIFIYYTMGWYRQAPGKERELVAAINRGGSTYYADSVKGRFTISRDNAKNTVYLQMNSLKPEDTAVYYCNARYYRLPYWDAVKYDYWGQGTQVTVSS | low polyreactivity |
| QVQLVESGGGLVQAGGRLRLSCAASGTTIVYYAMGWSRQAPGKEREMVAAISWSGTRTYYADSVKGRFTISRDTGKNSVYLQMNSLIPEDTAVYYCAAKGGYSTGRPTFTIFNYWGQGTQVTVSS | high polyreactivity |
| QVQLVESGGGLVQAGGSLSLSCAASGRTFGYNAKGWYRQAPGKERELVASISYRGGSTYYADSVKGRFTISRDNAKNSVYLQMNSLKPEDTAVYYCNKYYVLREYYWGQGTQVTVSS | high polyreactivity |
| QVQLVESGGGLDQAGGSLRLTCAASGSTFQFYAMGWYRQAPGKERYLVAAISGAGGSTYYADSVKGRFTISRDNAKNTVYLQMNILKPEDTAVYYCNKVRRKQSVLTFDYWGQGTQVTVSS | high polyreactivity |
| QDQLVESGGGLVQAGGSLRLSCAASGRIFYTNAMGWYRQAPGQERDLVAVISWGGDTTYYADSVKGRFTISRDNAKNTVYLQMNSLKPEDTAVYYCNGDWGPTYEIYDSWGQGTQVTVSS | low polyreactivity |
| QVQLVESGGGLVQAGGSLRLSCAASAFTFGNYAMGWYRQAPGKERELVAVISRGGSTYYADSVKGRFTISRDYAKNTVYLQMNSLKPEDTAVYFCAARAFPPYGYDYWGQGTQVTVSS | high polyreactivity |
| QVQLVESGGGLVQAGGSLRLSCAASGRIFDRYAMGWYRQAPGKERELVASITSSGGNTYYADSVKGRFTISRDNAKNTVYFQMNSLKPEDTAVYYCAKPQRVWQYGNYYYWGQGTQVTVSS | high polyreactivity |
| QVQLVESGGGLVQAGGSLRLSCAASGFIFISYMGCDRQAPGKERELVAAISWSGTRTYYADSVKGRFTISRDNAKNTVYLQMNSLKPEDTAVYYCAARKYYDRYFYWGQGTQVTVSS | low polyreactivity |
| QDQPVESGGGLVQAGGSLRLSCDDSGFTFVYYAMGWYRQAPGQERELVAAISTGGSTYYADSVKWRFTISRDNAKNTVYLQMNSLKPEDTAVYYCNAVYTYRWRFNYWGQGTQVTVSS | high polyreactivity |

| Sequence | polyreactivity (PSR sort gate) |
| --- | --- |
| QVQLVESGGGLVQAGGSLRLSCAASGRTFRIYAMGWYRQAPGKERELVAAIRWSGGTTYYADSVKGRFTISRDNAKNTVYLQRNSLKPEDTAVYYCAADSTNRYDYWGQGTQVTVSS | high polyreactivity |
| QVQLVESGGGLVQAGGSLRLSCAASGSIFLVNAMGWYRQAPGKERELVAAIRGSGGSTYYADSVKGRFTISRDNAKNTVYLQMNSLKPEDTAVYYCAADIWRLAYDYWGQGTQVTVSS | low polyreactivity |
| QVQLVESGGGLVQAGGSLPLSCAASGSIFGTYAMGWYRQAPGKERELVAAITTSAGSTYYADSVKGRFTISRDNAKNTVYLQMKSLKPEDTAVYYCAARFRRGITYEYWGQGTQVTVSS | high polyreactivity |
| QVKLVESGGGLVQAGGSLRLSCAASGRTISGNAMGWYRQAPGKERELVATISGRGGSTYYADSVKGSFTISRDNAKNTVYLQMTSLKPEDTAVYYCAKRLYSRRPLMDSWGQGTQVTVSS | high polyreactivity |
| QVQLVESGGGLVQAGGSLRLSCAASGSTFQTYAMGWYRQAPGKERELVASINWRSGSTYYADSVKGRFTISRDNAKNTVYLQMNSLKPEDTAVYSCAAELDFSPGYYYLYDYWGQGTQVTVSS | low polyreactivity |
| QVQLVESGGGLVQAGGSLRLSCAASGLPFKSNAMGWYRQAPGKERELVASISKRGGTTYYADSVKGRFTISRDNAKNTVYLQIKSLKPEDTAVYYCAAQSRATTYSWWTGSDYWGQGTEVTVSS | high polyreactivity |
| QVQLVESGGGLVQAGGSLRLSCAASGRTFWYYAMGWYRQAPGKERELVAYADSVKGRFTISRDKAKNTVYLQMNSLKPEDTAVYYCAVGPVVWFSSSLYYTEYYYWGQGTQVTVSS | low polyreactivity |
| QVQLVESGGGLVQAGGSLRLSCAASGRTFPVNGMGWYRQAPGKERELVAAITGGGSTNYADSVKGRFTITRDNAKNTVYLQMNSLKPEDTAVYYCAAGSYSRYLYSLYFDFDYWGQGTQVTVSS | low polyreactivity |
| QVQLVESGGGLVQAGGSLRLSCAASGIILYGYAMGWSRQAPGKERELVAAITKSGGSTYYADSVKGRFTISRDNAKNTVYLQMNSLKPEDTAVYYCAAKRWGIWYYGYRPDDYWGQGTQVTVSS | low polyreactivity |
| QVQLVESGGGLVQAGGSLSLSCAASGSILVPYTMGWYRQAPGKERELVASISYSGGSTYADSVKGRFTISRDNAKNTVYLQMNSLKPEDTAVYYCAASLPPWYPGDDFYYWGQGTQVTVSS | low polyreactivity |
| QVQLVESGGGLVQAGGSLRLSCAPSGFIFPLYTMGWYTQAPGKERELVAAIDFSGASTYYADSVKGRFTISRDNAKNTVYLLMNSLKPEDTAVYYCATYGSYRITVFYAYYYWGQGTQVTVSS | low polyreactivity |
| QEQLQETGGGLVRAGGSLRLICAASRSNSVEAGMGRSRQAPGEERELVATINDGSITNYAVSVKGRFTTSRDNAKYTVYLLMNSLKPEDTAVYYCAALTRNYQSHQFWGQGTQVTVSR | high polyreactivity |
| QVQLVESGGGLVQAGGSLRLSCAASGRIFVHYASGWYRQAPGKERELVAAISWNGGRTFYADSVKGRFTISRDNAKNTVYLQMNSLKPEDTAVYYCAARSRYSLDYWGQGTQVTVSS | high polyreactivity |
| QVQLVQSGGGLVQAGGSLRISCAPSGLTCNGNAMGWYRQAPGKEREMVAAISSSGGTTYYADSVKGRFTISRDNAKNTVYLEMNSLKPEDTAVSYCAARPSGGYESTRTRDYWGQGTQVNVSS | low polyreactivity |
| QVQLVESGGGLVQAGGSLRLSCAASGRTIGGYVMGWYRQAPGTERELVAVITISGGSTYYADSVKGRFTISRDNAKNTVYLQMNSLKPEDTAVYYCAARTYYGYDYWGQGTQVTVSS | high polyreactivity |
| QVQLVESGGGLVHAGGSHRLSCAASGSIFPYYTMGWYRQAPGKEREMVAAISGSGTSTYYADSVKGRFTISRDNAKNTVYLQMNSLKPEDTAVYYCAADFRYYVTSLKYDYWGQGTQVTVSS | low polyreactivity |
| QVQLVETGGGLVQAGGSLRLSCAASGLTFYYYTMGWYRQAPGKERELVAAITSGGSTYYADSVKGRFTISRDNAKNTVYLQMNSLKPEDTAVYYCAAVPSRYGRYRYYYWGQGTQVTVSS | high polyreactivity |
| PVQLVESGGGLVQAGGSLRLSCAASGRIFVYNVMGWSRQATGKERELVAASRWSGGSTYADSVNGRYTISRDQAKNPVYLQIHSLKPEDTADYYCAARHYRRGDSWAQGTQVTVSS | high polyreactivity |
| QVQLVESGGGLVQAGGSLRLSCAASGSIFYRNVMGWYRQAPGKERELVAAISSGTSTYYADSVKGRFTISRDNAKHTVYFPMNSLKPEDPAVYDCAADGLHYYGQRWYYGVDYWVQGTQVTVSS | low polyreactivity |
| QVQLVESGGGLVQAGGSLRLSCASSGRTFTHYAMGWYRQAPGKERELVASISDGGRTHYADSVTGRFTISRDNAKNTVYLQMNSLKPEDTAVYYCATDRYPTRRYDYWGQGTQVTVSS | low polyreactivity |
| EVQLVESGGGLLQPGGSLRVSFAASGYIYSRYRMGWYRQAPGKGREFVAAISGGSSTNYADSVKGRFTISRDNSKNTVFLQMNSLRAEDTAVFYCADFKIDSDPRVYWGQGTQVTVSS | low polyreactivity |
